# According to the DeepSol protein solubility set:
# Assay: soluble on expression in E. coli; label from the status in PepcDB or PDB records
row,Sequence,soluble on expression in E. coli
1,MQKISRIVNSIYLTAELTAGTANTYDLIAEFFNFGPDSYNKLQSIDMKELKSGLEEIVSIHSELTYTDIDKRAEQRFRHLIEIRKEVEGVGSLEDIKDAQANYKSELETFKKTTFDTAGIEEFQNAVKNFIGAAADVEKYSNLEKLTDVDIMYARPLIYTLKTSIENLAKSYSSINSFDDFEKIRNPSEFVDPISKIVSGYKKYNASRTTIERDGNFAKGMQSNANNMKRLENVASVFEGLGSFVKNLQAVIDVRQTMHLPKYTVGFIDGTFDPKKVVTDLEDDWVQSVTHEMDLNRTINLLLPIGDHVSAIEASFLSSSSKQSKFFTGFKSSETEVSPVDGSIDSIISTSKKVSECIIAPLTYLESIKEVEILLQAIESLKKTVDTLVGTKELVNWVKTNDVVLKEVEALCSYTDEEKKDFESSVPIKLKGLKSSENYTSLIKTLNQSSLFADAVFSEKLSTTGQETAYILGGLQSLDAFYNSATDHIAFFDCLLNVAYYDLIPLAIDTLNKVRKMDVQPIRDGIDVVNDLFNVSNQLDELKTKLRELNDPNFSIAETPLSNPSLHTTTIGLSVRGVIRMKDEIDHRSDFDVVIENAEMVDQEMKNTGKKAINMVEFGSRLKKLKSELEGWKSNITVGGAHRIRRSTPSLADYAHIFQNALKVGGVDDDLKKLMDAVKDFEKTGKDAATKVKLKEVIASLNSLNSIGLQLSSFATPFTAIGQSFSALDAFFVSNGKIITTPAPIVSSSDIRSPTIEDATALVSFLYKLLNDFMKEEGDKGATNNGKLPLKAMYQFCKSILRIANLAPNNAIVESEKYSEQDRYSDVLCGMDNRILIDEDVCRRCYFKDQYINANYLELPNGNRMILTQAPMSRTEHFKPEKDKKRKNLYSLSDEEEEISYLVQTVDKFYQTIVQTGTEVVAMLCDFNEEGVEKCSSYFPLEKDGKQKFHNVNVCTTNVQHPSADVVLRTLVITSYLGEKKKTHTVKHYSYKGWIEKNAPELPREILNIFRVARNSKSLVVHCSNGIGRSAAFVSWELCYHFVPVNFEICDFSVAEFVYQKMIRSLDTTSTVNLDFLSLLTELRHSRPRAIHTPMQLAFSIMMVLDFVMNNFPKGEMEAKYQEIRKSYLHARQMMHKDLEFDGSDGKTVDIALDEDGHGIPEKKGKKKTNKKAAQQASVKKDEKSKKKSKKDSKKGSKMDMKTAEEGMKSLQKKAA,not soluble
2,GDQEPPLYVNENDIFTSPTRIEATLNGLYAAIKNTGTKSLMGGKSYLVFDNRGDDVINISNNLVTLFNTYNMNVGITDAENADTWTYAYLAINKVNTFLQSLEGAREVAGENYDRYVQEAKFVRALAYYYLNNLYPTPYSVNPDAKSVPLRLTAEAGTENNNMPRSTVKQIYEHILSDLENISALDTEVNTYTGVTHATQAAANMLKMRVYMAMNEWDKAITAGELVTGYSLPEDVTLIYKAPYFSQESIFSLPMADTNIPNTQQSLAEYYYDGKIMLIDTKSGIMSKPDYSLATDKRIIAFKGEKDLLMKFTDAKTKLQWVPIFRYAETLLDLAECYANKAGGEATAKSLLKQVRGRSVDAATDPLNIDNLSGDALKEAIYNEKRLEFIGEGIRGIDIMRRGEHFIKVGENETINVGPSDEKYTWPIPQVELLLNKDINK,soluble
3,TLTVNGPPIISSTQTQHALHGEKGQIKCFIRSTPPPDRIAWSWKENVLESGTSGRYTVETISTEEGVISTLTISNIVRADFQTIYNCTAWNSFGSDTEIIRLKEQGSEM,soluble
4,MGSDKIHHHHHHACDDYLDDVPKGQKIPKTWEDYNAFIRNNFSYHFLDPDQLAVLAGDIFKLPSAVTSPSLTRANYYADESVNRIDLMTGNDKNPYFNAYEGLFAWNLIVEDVPDATECTEVQRRQLIAQGRVLRAMHYFYLANFYADQYDEATKDKLSVPLITSASVEAPSPQVTLQTIYEFMLDDLNKAVEDLPVHSESILHPNRALGYGMLARVYLSVGDYDNALKNASLALEQNDQLFNWIDLYEADKERYDDPKNYTSGVAGNPETDNVENYIYCYGSSTSGWTGLNNTSYAISPERAARFEKGDTRLLTHWKSRVSSSGIPYYAGIYALEMNKGGMRSPEMYYIKAECLARKGGEANIREAMELVNKVRKTRILLEFYQDWTAATTKEAVEKIIRDKESEYIQTQVIYCDYRRLNKDPEYARTFPRTIEGKEYILKSDSHLWIMPFPREAVSNPGNGTITQNVEK,not soluble
5,MPPLTHQSLKCVIKHLEANARIQLSQRCPSLHKTEKLIPLTIYNLELDQCSVKINNTDYSLTLTSNNFSSPFDLDQFGAIDLDEVDVDGNDVLVDNRSFKEEKNRLLRMRIEIRKMPDGVEKQEATAAVVALEQLEDNRWLRREPTSSSMMNLSINSQFIIFRGEKLCYNMKLHQAFRYLVAKLFSGRRCPIQVKKLSVECKGILRVPADLRFKVSHLEILGSGVDKIVEAFKPLIGRIQTITVNDDFNISHPIFQTALILKNPNENLFGAASASNVRVENNEQFSSLSERVVDLIRIWQSHGHKIGTIWNFSMRSQEQALDSIMYLRRQLGASFSGHKNLSQYGRSAAISLNNSDEIYVSFKQQQIKVWNLKVVVRRKRL,not soluble
6,MSLAFRTLSFGIKRSQPKKKDADDLNKKKELSTITEESLRRYDELREKMIGKVESKIEKKVKKNKKKASIEILASRKRVHDSDGDSENEVEETVGDVEKRMQKLLDDIRRTNRIFTWGDHLPNIILRFSDSSMSPSLLNRLSENSIRQPSPIQMQSIPFMTERRNVLASAPTGSGKTLAFALPVIDEILELKQRADYSSSNSSKLLAVVLEPTRELAAQTYTEFLKYCANTSISAANFSGEETDIQHADILVSTPNRIVFHLDKIDTSSLRWLVVDESDRLFEVVEGQDKCFRNQLAAIYKACDAKCTRVAFFSATFSHEVEKWCKENIDEIGMVCVGERNSSNTSVKQKLTYCGTEDGKKIAIRNLLRTSFKPPALVFVQSKDRAVQLVKLLSAIDSNLKVDSINSGKSDKERDETMERFRRGEIWVLVCTELLGRGLDLSDVGLVINYDLPTSIVSYIHRVGRTGRAGKSGHAVTYFTDADMKYIKSIATVIRQSGFDVPEYLMEMKKVSRDRKKDMLKHAPKRHKIAIVKEQVIKKKKMLAKAAAEEKAKNKTETQTAEKPEKKIKKKKLIKKNNKNI,not soluble
7,MGSDKIHHHHHHAQKGVDNGTQFGSGEDSVRCITNISLFVPYAKAGNFKDAYDFWKIVYDECPAATKDIYLYGVKIMGWKIAQEKDPAKKNALIDDLMGVYDKRVKYFGNDRRYGKDWIVARKVQDYLAQTGDNADYNQAYTWLKEIVDEKGADTEALGLSLFSFSSMKKMLNDPNFKEQYIQDYLKVSAGLDAQLKAAQAANNQKEVNALTAYKSGVDNAFANSGAADCETLQNLYAAKIEENKDNLPYLKETISLLRRTGCQEIEAYFLASDYAYRQEPSAEAAVGLGKKAVKIKDYDTAIKYFDEAANLETDATSKADDYYMIALLLFEQNAYSKARQYCQKALEVNPNYGNAYLLIGKMYAATSKSVFPNDGVLARAAYNAAIDKFEKAKQVDPSVAEEANTLISSYRAHLPSTEEIFMHPDLEKGKPFTVGGWIGERTTIR,not soluble
8,MSLWLQISNARIVCEDHLVEAGLAICDGLIDCFEQGGTSKAEAIDFDGDFLLPGLIDLHTDSVEHFMQPRPGVQWPSPLAAVLAHDWQLLGSGITTVLDALALGDYDSGGTRTAMLNDAIDGLTQARASGLLKTDHYFHFRCELSDPALLPIVERHVDNPGLRLISMMDHTPGQRQWHNLTLYREFRRKKNARVWNEEEFALHLAERREHQQQYVPPGRSTIGHLCRERDIRIASHDDTAAADVDESRGDGITISEFPTTVEAASRARELGMKIVMGSPNIILGGSHSGNVSALELADRGLLDVLTSDYVPGSLLHAAFALAAKGFDLPEAVAMVTKTPADLLGFSDRGRIAPGLRADLIRVRLVEGVPVIRNIWVAGRQYLEGHHHHHH,not soluble
9,MAELYVKPGNKERGWNDPPQFSYGLQTQTGGPKRTPLTKRVAAPQDGSPRAPETSGPPPVDHPPPSSKASRPPPMGSCPATGVEPPSSPVIESETLIEDVLRPLEQALEDCHGHTKKQVCDDISRRLALLREQWAGGKLSIPVKKRMALLVQELLHHQWDAADDIHRSLMVDHVTEVSQWMVGVKRLIAEKKSLSSEETKEEKFTVEPENQTIPGFQQPS,soluble
10,MSTKVKKTTQLKQMLNSKDLEFIMEAHNGLSARIVQEAGFKGIWGSGLSVSAQLGVRDSNEASWTQVVEVLEFMSDASDVPILLDADTGYGNFNNARRLVRKLEDRGVAGACLEDKLFPKTNSLHDGRAQPLADIEEFALKIKACKDSQTDPDFCIVARVEAFIAGWGLDEALKRAEAYRNAGADAILMHSKKADPSDIEAFMKAWNNQGPVVIVPTKYYKTPTDHFRDMGVSMVIWANHNLRASVSAIQQTTKQIYDDQSLVNVEDKIVSVKEIFRLQRDDELVQAEDKYLPKN,soluble
11,MTGTVSRRKKIAMIGSGMIGGTMGYLCVLRELADVVLFDVVTGMPEGKALDDSQATSIADTNVSVTSANQYEKIAGSDVVIITAGLTKVPGKSDKEWSRNDLLPFNAKIIREVAQGVKKYCPLAFVIVVTNPLDCMVKCFHEASGLPKNMVCGMANVLDSARFRRFIADQLEISPRDIQATVIGTHGDHMLPLARYVTVNGFPLREFIKKGKMTEAKLAEIVERTKKAGGEIVRLLGQGSAYYAPALSAITMAQAFLKDEKRVLPCSVYCQGEYGLHDMFIGLPAVIGGGGIEQVIELELTHEEQECFRKSVDDVVELNKSLAALGPG,soluble
12,MFVRICAMFGFVSDLLTAAVSSLDELLQDTPAHQIILGTAALYFLYNQYHNPSISRWYRSRNNASMKQRIIDSAYALAKNLPGVNQIIEKELNKELSSTREKLRIQRSGMTLREEIPEEGLSPQDILSAFDVDVEKCHFDFLSVTNDSPEREFLVERGDGKDSGALYAIHPKELTELLKEVYGATALTNPLHDKWPRINAMQAEVIRWCQNLFHGSKECYGLLTHGGTTSIIEAMAAYVIRARAKGIDYPEIVVPETAHAAFKKAAELTGAILITVPVDKKTGAVNPKVMSSYITRNTAVIVGSAPSFMNGIHDPVSELGQLAKKKNVPFHVDACLGGFLTAFLDTSSEPMDFRVPGVTSISADLHKYGCCPKGTSVCLFSEDSPALSVYAALNWSGGLYATPGILDGSTSGARVAEVYATLSYYGKNKYQEIAKSIITLRNAIQKELTTLLEEGNGLTSEDIYVYGNPQWSILGFRSNTCNAHFIADELEKRGWKLNLLQNPDGFHLCLTHVHTLVKGFETQFIKDLREAVIDVKNYPPGKKPSGNVKVYGAVGMMPIELQREICKQYQKARLNYTSASPGSLRIFTNVPVEEDEGLRNRKTEKYKV,not soluble
13,PLSEAELALFDPYSKEESTGPSPTHTGELAAIEVESKRLDQEPWEPGGQEEEEAEDGEPAPAYLGQATELITQALRNEKAGAYAAALQGYQDGVHILLQGVSGDPSPARREGVKKKAAEYLKRAEMLHTHLP,soluble
14,QFLQKQHFLILGLAKSGYAAASILHEKGIYVAVNDQKPFEENEPAQKLSEKGIEVVCGEHPVSLFDQHQITILIKNPGIPYENIMVQEAEKRGIPVW,not soluble
15,MSAAPLVRAVRWYQRVLSPRKPAPTCRFSPTCSEYAAQALDRHGALKGGWLALWRVLRCNPLVPGGFDPV,soluble
16,MTAQTLYDKLWNSHVVREEEDGTVLLYIDRHLVHEVTSPQAFEGLKMAGRKLWRIDSVVSTADHNTPTGDWDKGIQDPISKLQVDTLDKNIKEFGALAYFPFMDKGQGIVHVMGPEQGATLPGMTVVCGDSHTSTHGAFGALAHGIGTSEVEHTMATQCITAKKSKSMLISVDGKLKAGVTAKDVALYIIGQIGTAGGTGYAIEFGGEAIRSLSMESRMTLCNMAIEAGARSGMVAVDQTTIDYVKDKPFAPEGEAWDKAVEYWRTLVSDEGAVFDKEYRFNAEDIEPQVTWGTSPEMVLDISSKVPNPAEETDPVKRSGMERALEYMGLEAGTPLNEIPVDIVFIGSCTNSRIEDLREAAAIAKDRKKAANVQRVLIVPGSGLVKEQAEKEGLDKIFIEAGFEWREPGCSMCLAMNADRLTPGQRCASTSNRNFEGRQGNGGRTHLVSPAMAAAAAVTGRFTDIRMMA,not soluble
